Two molecules from publication PMC10002811, “Timed material self-assembly controlled by circadian clock proteins” (ArXiv, 2024) can be followed below.

Common to all, as to details: both partners purified
In assay [1] the target is T1, KaiC (wild-type) (UniProt Q79PF4 1-519).
T1 construct: KaiC, circadian clock protein of cyanobacteria; hexameric ring; In reactions with KaiA the phosphorylation of S431 and T432 cycles over about 24 h; also called WT KaiC; wild-type KaiC; source: recombinantly expressed and purified as previously described
T1 sequence (looked up): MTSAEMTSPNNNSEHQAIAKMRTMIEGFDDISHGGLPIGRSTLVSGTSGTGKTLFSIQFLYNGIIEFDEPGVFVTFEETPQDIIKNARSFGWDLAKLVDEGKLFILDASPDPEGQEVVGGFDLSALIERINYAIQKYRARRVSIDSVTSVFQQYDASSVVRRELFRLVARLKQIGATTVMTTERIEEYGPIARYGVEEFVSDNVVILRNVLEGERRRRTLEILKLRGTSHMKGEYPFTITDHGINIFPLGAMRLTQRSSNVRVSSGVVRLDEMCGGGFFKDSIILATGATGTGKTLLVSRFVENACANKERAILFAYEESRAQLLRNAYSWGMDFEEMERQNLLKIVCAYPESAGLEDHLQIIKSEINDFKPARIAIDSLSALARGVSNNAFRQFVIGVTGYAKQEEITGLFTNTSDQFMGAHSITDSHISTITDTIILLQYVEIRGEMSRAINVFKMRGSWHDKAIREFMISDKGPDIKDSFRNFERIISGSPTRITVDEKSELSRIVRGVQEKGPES
In words: fluorescence polarisation; standard oscillator reaction: 1.5 μM KaiA, 3.5 μM KaiC, 3.5 μM KaiB at different ratios of KaiB and b-KaiB, 0.2 μM FITC-labeled KaiB K25C; time course over 144 hrs. (In general: Polarisation of emitted light reports the rotation of a fluorescent probe.)

Assay [2] addresses T2, pS KaiC (KaiC-EA; S431E, T432A) (UniProt Q79PF4 1-519, S431E | T432A).
T2 construct: KaiC, circadian clock protein of cyanobacteria, phosphomimetic of the pS431 (night) state; also called pS KaiC mutant; source: recombinantly expressed and purified as previously described
T2 sequence (looked up): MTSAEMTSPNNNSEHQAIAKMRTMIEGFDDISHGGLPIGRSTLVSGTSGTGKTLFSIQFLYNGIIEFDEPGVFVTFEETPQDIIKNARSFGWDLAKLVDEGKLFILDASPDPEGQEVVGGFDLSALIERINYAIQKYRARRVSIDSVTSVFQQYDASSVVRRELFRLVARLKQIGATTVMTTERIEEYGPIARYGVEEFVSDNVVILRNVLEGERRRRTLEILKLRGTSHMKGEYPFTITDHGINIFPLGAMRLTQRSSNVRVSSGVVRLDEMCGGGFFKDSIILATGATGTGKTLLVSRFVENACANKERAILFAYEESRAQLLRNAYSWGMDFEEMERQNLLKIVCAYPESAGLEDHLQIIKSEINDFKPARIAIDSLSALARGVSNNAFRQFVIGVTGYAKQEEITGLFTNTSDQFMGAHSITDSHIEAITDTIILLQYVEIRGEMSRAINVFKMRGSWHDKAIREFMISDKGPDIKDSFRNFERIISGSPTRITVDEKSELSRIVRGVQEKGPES
In words: fluorescence polarisation; colloid-linking conditions: 5.5 μM KaiB (55% b-KaiB), 6.5 μM KaiC (wild-type, pT or pS), 2.2 μM KaiA, 0.4 μM FITC-labeled KaiB K25C; time course.

For assay [3], the target named is T1, KaiC (wild-type). Put plainly: pull-down; 6.5 μM KaiC (wild-type, pT or pS) and 5.5 μM KaiB (55% b-KaiB, 45% unlabeled KaiB) in Kai buffer (10% glycerol, 150 mM NaCl, 20 mM Tris-HCl pH 8.0, 5 mM MgCl2, 0.5 mM EDTA, 1 mM ATP); 8 hr at 30°C; b-KaiB and partners removed with streptavidin-coated magnetic beads; supernatant analysed by SDS-PAGE.
For assay [4], the target named is T2, pS KaiC (KaiC-EA; S431E, T432A). Described as above.

B1: FITC-labeled KaiB K25C (natural protein, UniProt Q79PF5 1-102, looked up)
chain: MSPRKTYILKLYVAGNTPNSVRALCTLKNILEVEFQGVYALKVIDVLKNPQLAEEDKILATPTLAKVLPLPVRRIIGDLSDREKVLIGLDLLYGELQDSDDF
modifications: FITC label
notes: KaiB, circadian clock protein of cyanobacteria, with K25C; also called fluorescently labeled KaiB
Take B1: the binding result in assay [1] and in assay [2] was “binds” each time.

B2: biotinylated KaiB (natural protein, UniProt Q79PF5 1-102, looked up)
chain: MSPRKTYILKLYVAGNTPNSVRALKTLKNILEVEFQGVYALKVIDVLKNPQLAEEDKILATPTLAKVLPLPVRRIIGDLSDREKVLIGLDLLYGELQDSDDF
modifications: biotin, amine-reactive (potential sites: lysine residues); EZ-Link-Sulfo-NHS-LC-Biotin at a 50x molar excess to KaiB
notes: KaiB, circadian clock protein of cyanobacteria; In the assays b-KaiB was mixed with unlabeled KaiB (55% b-KaiB, 45% KaiB); also called b-KaiB; source: recombinantly expressed and purified as previously described; biotinylated with EZ-Link-Sulfo-NHS-LC-Biotin
Consider B2, for which the binding result in assay [3] and in assay [4] was “binds” each time.
